From the supplement of paper PMC10065799, “High-throughput profiling of sequence recognition by tyrosine kinases and SH2 domains using bacterial peptide display” (eLife, 2023)

Legend:
[1] = tested on: AncSZ; assay: phosphorylation enrichment, bacterial display (enrichment ratio); higher = better substrate or ligand; peptides without Tyr show the background
[2] = biological target: EPHB1 (UniProt P54762); assay: as above
[3] = biological target: EPHB2 (UniProt P29323); assay: as above
[4] = biological target: FGFR1 (UniProt P11362); assay: as above
FGFR1, sequence (P11362 whole entry, looked up): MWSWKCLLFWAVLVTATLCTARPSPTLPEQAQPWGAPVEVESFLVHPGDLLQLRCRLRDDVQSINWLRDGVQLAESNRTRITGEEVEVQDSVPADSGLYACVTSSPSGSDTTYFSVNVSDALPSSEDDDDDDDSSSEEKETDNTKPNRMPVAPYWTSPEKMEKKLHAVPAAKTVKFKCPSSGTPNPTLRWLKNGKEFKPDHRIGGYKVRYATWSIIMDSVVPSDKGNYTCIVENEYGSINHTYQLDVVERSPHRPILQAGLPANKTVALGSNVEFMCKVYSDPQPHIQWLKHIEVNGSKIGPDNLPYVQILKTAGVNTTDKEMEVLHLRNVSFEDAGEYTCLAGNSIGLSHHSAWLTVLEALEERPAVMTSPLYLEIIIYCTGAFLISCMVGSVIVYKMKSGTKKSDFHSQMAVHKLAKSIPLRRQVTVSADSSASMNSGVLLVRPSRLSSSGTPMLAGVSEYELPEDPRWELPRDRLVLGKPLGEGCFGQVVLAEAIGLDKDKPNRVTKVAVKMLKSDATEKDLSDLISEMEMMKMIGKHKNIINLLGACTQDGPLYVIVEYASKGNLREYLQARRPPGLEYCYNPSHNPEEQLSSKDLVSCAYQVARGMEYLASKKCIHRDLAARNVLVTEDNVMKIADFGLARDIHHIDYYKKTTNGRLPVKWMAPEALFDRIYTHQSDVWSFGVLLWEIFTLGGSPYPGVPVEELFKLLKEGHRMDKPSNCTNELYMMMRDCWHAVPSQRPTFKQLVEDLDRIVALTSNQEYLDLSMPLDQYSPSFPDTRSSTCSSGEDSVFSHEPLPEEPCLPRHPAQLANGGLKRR

[5] = biological target: FGFR3 (UniProt P22607); assay: as above
[6] = tested on: Fer (mouse); assay: as above
[7] = biological target: Fes (UniProt P07332); assay: as above
Fes, sequence (P07332 whole entry, looked up): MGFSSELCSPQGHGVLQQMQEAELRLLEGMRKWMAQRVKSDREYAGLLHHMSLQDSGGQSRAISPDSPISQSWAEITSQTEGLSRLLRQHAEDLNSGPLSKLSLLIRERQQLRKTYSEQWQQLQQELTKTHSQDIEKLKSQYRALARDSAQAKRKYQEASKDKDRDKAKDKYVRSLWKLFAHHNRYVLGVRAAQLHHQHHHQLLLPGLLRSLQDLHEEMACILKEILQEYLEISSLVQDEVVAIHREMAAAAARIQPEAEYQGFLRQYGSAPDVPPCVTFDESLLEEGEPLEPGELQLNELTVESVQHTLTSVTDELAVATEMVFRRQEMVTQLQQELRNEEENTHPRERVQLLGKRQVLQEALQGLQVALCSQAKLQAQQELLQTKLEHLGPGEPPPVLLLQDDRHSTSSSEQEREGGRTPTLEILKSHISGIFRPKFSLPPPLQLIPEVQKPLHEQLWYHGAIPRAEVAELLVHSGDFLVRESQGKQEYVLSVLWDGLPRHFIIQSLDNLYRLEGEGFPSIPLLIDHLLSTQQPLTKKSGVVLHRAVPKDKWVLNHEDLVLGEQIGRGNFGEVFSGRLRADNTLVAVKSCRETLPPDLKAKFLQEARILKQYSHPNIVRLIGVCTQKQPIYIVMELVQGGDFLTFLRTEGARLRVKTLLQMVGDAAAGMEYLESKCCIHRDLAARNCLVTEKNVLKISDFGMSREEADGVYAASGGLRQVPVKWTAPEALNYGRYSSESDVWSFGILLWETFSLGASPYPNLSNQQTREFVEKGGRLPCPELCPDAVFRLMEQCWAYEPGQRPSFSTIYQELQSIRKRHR

[8] = biological target: Fyn (UniProt P06241); assay: as above
Fyn, sequence (P06241 whole entry, looked up): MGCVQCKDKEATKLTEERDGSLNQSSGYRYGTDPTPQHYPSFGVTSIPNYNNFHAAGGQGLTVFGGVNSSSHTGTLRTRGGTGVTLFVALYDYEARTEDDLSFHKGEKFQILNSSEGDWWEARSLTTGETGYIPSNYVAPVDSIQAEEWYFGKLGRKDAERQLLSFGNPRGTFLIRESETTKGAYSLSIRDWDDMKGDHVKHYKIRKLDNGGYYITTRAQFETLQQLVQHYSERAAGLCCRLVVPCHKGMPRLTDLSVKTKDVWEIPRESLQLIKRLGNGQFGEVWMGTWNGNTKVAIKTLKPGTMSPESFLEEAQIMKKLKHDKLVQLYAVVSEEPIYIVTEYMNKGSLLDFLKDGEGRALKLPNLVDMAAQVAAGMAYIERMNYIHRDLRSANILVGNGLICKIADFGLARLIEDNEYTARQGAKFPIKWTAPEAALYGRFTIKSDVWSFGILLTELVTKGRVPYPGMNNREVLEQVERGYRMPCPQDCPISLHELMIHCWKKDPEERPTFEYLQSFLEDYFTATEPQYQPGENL

[9] = biological target: Hck (UniProt P08631); assay: as above
Hck, sequence (P08631 whole entry, looked up): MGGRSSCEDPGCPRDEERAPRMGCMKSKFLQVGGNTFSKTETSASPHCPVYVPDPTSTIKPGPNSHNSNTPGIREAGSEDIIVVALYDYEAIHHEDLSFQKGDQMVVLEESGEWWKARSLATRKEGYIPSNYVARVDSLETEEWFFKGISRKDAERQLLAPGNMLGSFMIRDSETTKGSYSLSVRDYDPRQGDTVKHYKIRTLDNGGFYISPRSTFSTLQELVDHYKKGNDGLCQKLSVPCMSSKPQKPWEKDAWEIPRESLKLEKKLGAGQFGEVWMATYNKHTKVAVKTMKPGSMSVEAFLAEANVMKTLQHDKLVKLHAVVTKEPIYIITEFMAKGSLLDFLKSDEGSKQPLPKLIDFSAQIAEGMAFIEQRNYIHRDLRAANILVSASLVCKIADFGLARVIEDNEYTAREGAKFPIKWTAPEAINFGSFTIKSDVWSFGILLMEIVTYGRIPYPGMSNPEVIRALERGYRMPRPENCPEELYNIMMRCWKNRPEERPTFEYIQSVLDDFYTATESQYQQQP

[10] = biological target: Jak2 (UniProt O60674); assay: as above
Jak2, sequence (O60674 whole entry, looked up): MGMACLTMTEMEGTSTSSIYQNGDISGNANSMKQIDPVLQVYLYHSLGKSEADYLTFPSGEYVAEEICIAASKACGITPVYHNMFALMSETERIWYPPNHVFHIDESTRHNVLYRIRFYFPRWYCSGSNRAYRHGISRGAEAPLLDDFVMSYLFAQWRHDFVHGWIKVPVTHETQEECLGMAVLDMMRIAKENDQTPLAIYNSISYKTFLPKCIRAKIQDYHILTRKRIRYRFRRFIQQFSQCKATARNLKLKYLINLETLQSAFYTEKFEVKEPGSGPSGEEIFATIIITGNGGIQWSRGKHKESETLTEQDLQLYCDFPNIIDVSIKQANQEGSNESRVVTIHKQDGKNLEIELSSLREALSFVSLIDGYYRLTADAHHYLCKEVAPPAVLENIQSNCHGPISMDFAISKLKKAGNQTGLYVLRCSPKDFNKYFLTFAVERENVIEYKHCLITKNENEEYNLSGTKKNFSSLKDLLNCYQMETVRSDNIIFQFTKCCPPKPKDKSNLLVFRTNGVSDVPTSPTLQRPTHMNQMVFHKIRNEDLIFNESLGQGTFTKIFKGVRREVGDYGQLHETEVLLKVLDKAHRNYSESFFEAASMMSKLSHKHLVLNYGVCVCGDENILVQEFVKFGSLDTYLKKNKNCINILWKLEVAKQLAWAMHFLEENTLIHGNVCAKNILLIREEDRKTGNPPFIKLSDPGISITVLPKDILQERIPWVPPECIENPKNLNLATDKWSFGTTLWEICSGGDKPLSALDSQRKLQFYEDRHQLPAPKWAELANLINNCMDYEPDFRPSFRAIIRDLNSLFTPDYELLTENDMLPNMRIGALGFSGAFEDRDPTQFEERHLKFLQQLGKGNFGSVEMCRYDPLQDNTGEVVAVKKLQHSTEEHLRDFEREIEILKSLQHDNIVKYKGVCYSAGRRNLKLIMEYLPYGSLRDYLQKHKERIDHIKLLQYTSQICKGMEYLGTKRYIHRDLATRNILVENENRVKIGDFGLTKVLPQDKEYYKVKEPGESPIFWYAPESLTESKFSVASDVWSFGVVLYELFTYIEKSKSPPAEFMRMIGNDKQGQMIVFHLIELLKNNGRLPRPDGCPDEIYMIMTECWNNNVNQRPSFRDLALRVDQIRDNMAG

[11] = biological target: MERTK (UniProt Q12866); assay: as above
[12] = tested on: c-Abl (mouse); assay: as above
[13] = tested on: c-Src; assay: as above
[14] = biological target: Grb2 SH2 (UniProt P62993); assay: SH2 binding enrichment of the phosphorylated peptide, bacterial display (enrichment ratio); higher = better substrate or ligand; peptides without Tyr show the background
[15] = biological target: SHP2-C SH2; assay: as above
[16] = biological target: c-Src SH2; assay: as above
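Throughout, for SH2 binding enrichment of the phosphorylated peptide, bacterial display: peptide library displayed on the E. coli surface as eCPX fusions, selected cells deep-sequenced, score is each peptide's frequency after selection divided by its frequency in the input.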
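Throughout, for phosphorylation enrichment, bacterial display: 11-residue human phosphosite peptides and single-mutation variants displayed on the E. coli surface, counted by deep sequencing, each peptide's frequency after selection divided by its frequency in the unselected input library; frequency after pTyr selection over input frequency; kinase dosed for 20-30% of maximal phosphorylation in three min.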

EPHB1, sequence (P54762 whole entry, looked up): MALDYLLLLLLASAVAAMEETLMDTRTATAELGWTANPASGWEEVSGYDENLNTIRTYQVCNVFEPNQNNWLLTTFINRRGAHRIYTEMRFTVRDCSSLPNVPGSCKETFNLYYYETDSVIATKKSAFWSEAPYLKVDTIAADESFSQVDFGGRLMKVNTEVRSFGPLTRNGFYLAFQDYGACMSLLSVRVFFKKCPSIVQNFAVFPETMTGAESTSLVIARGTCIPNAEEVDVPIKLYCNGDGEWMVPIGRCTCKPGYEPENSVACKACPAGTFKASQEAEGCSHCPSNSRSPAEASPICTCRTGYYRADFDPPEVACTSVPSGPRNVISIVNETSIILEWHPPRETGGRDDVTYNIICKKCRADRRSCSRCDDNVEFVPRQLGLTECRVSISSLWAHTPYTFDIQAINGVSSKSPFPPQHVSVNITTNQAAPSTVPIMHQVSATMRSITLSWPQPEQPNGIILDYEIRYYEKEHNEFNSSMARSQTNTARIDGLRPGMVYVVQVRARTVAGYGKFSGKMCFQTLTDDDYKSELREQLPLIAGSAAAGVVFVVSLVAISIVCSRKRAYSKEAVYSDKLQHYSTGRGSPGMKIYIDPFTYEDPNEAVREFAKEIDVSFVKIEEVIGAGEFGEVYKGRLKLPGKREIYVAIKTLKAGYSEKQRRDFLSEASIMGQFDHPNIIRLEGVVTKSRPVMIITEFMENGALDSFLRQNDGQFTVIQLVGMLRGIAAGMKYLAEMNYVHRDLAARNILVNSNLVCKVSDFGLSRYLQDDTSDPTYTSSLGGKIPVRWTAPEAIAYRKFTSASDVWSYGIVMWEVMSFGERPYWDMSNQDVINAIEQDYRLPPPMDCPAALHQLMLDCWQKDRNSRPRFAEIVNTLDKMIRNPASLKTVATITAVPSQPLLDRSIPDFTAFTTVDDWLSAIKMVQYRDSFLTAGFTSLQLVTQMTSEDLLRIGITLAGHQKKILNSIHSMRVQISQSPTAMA

| Sequence | SH2 binding enrichment [14] | SH2 binding enrichment [15] | SH2 binding enrichment [16] | phosphorylation enrichment [1] | phosphorylation enrichment [2] | phosphorylation enrichment [3] | phosphorylation enrichment [4] | phosphorylation enrichment [5] | phosphorylation enrichment [6] | phosphorylation enrichment [7] | phosphorylation enrichment [8] | phosphorylation enrichment [9] | phosphorylation enrichment [10] | phosphorylation enrichment [11] | phosphorylation enrichment [12] | phosphorylation enrichment [13] |
| --- | --- | --- | --- | --- | --- | --- | --- | --- | --- | --- | --- | --- | --- | --- | --- | --- |
| GLAKEYIDPET [CSNK1G2_Y195] | 0.942 | 0.967 | 0.448 | 0.743 | 0.527 | 0.462 | 0.544 | 0.604 | 0.509 | 0.941 | 0.494 | 0.449 | 0.904 | 0.4 | 0.592 | 0.454 |
| GLGGGCGGASG [KRT8_Y54_Y54C] | 0.944 | 0.712 | 0.525 | 0.582 | 0.465 | 0.499 | 0.494 | 0.544 | 0.449 | 0.817 | 0.433 | 0.505 | 0.508 | 0.384 | 0.444 | 0.404 |
| GPIIRYDLGGA [CYP11B1_Y81_F79I] | 0.645 | 0.851 | 0.495 | 0.648 | 0.585 | 0.366 | 0.617 | 0.498 | 0.396 | 0.723 | 0.412 | 0.384 | 0.626 | 0.477 | 0.518 | 0.405 |
| GPTLSYGRDGR [MATR3_Y158] | 0.692 | 0.739 | 0.532 | 0.435 | 0.276 | 0.347 | 0.363 | 0.377 | 0.306 | 0.526 | 0.33 | 0.379 | 0.449 | 0.488 | 0.369 | 0.332 |
| GQECKYPPTQD [METAP2_Y137_E136K] | 1.04 | 0.689 | 0.63 | 0.86 | 0.521 | 0.507 | 0.569 | 0.638 | 0.511 | 1.14 | 0.515 | 0.52 | 1.03 | 0.553 | 0.727 | 0.504 |
| GRFCGYKSKHG [EPHA3_Y570] | 1.32 | 1.49 | 1.43 | 0.469 | 0.506 | 0.368 | 0.374 | 0.638 | 0.426 | 0.664 | 0.321 | 0.377 | 0.726 | 0.376 | 0.587 | 0.363 |
| GSCQEYTGAPY [NAXD_Y85_G81S] | 0.799 | 0.764 | 0.825 | 1.14 | 0.573 | 0.537 | 0.558 | 0.7 | 0.494 | 0.894 | 0.441 | 0.545 | 0.805 | 0.432 | 0.668 | 0.505 |
| GSTLSYFGLAA [P2RX7_Y343] | 1.14 | 0.962 | 0.646 | 0.725 | 0.483 | 0.621 | 1.83 | 1.6 | 0.43 | 1.11 | 0.571 | 0.63 | 6.12 | 0.892 | 0.525 | 0.629 |
| GTATTYLCGVK [ALPL_Y117_A116T] | 0.67 | 1.15 | 0.483 | 0.914 | 0.5 | 0.8 | 0.595 | 0.758 | 0.495 | 1.13 | 0.479 | 0.582 | 0.946 | 0.493 | 0.811 | 0.472 |
| GVLKEYVVKVL [CPS1_Y529_G530V] | 0.949 | 0.748 | 0.479 | 0.989 | 0.477 | 0.491 | 0.383 | 0.546 | 0.384 | 1.06 | 0.389 | 0.386 | 0.814 | 0.32 | 0.67 | 0.355 |
| GVSFIYTIDGS [DCX_Y105_R102S_YF] | 0.88 | 0.725 | 0.584 | 1.43 | 0.694 | 0.532 | 0.496 | 0.753 | 0.491 | 1.31 | 2.18 | 0.976 | 1.54 | 0.552 | 0.927 | 1.98 |
| GYRPVYSEDEQ [CHST6_Y362] | 0.921 | 0.669 | 0.692 | 1.26 | 0.677 | 0.762 | 0.471 | 0.806 | 0.643 | 1.24 | 0.61 | 0.49 | 1.16 | 0.48 | 0.774 | 0.636 |
| GYSRHCEDGYP [CTNND1_Y217_Y217C] | 0.796 | 0.563 | 0.544 | 0.869 | 0.521 | 0.83 | 0.46 | 0.556 | 0.465 | 0.972 | 0.44 | 0.5 | 0.879 | 0.446 | 0.928 | 0.489 |
| HAVVDYMRRQK [ATM_Y1915_L1910H] | 0.6 | 0.364 | 0.381 | 1.16 | 0.701 | 1.03 | 0.799 | 1 | 0.535 | 1.14 | 0.634 | 0.694 | 0.892 | 0.654 | 0.595 | 0.539 |
| HEHVGYTTLNR [CHN1_Y148_Y143H] | 0.88 | 61.4 | 3.47 | 0.63 | 0.498 | 0.429 | 0.573 | 0.744 | 0.351 | 0.667 | 0.489 | 0.57 | 0.669 | 0.44 | 0.936 | 0.618 |
| HIPFRYPKEFQ [IDS_Y234] | 1.1 | 1.12 | 0.862 | 0.826 | 0.521 | 0.641 | 0.442 | 0.66 | 0.344 | 1.26 | 0.424 | 0.564 | 0.815 | 0.645 | 0.946 | 0.756 |
| HKLSFCEFDFE [BTK_Y40_Y40C_YF] | 1.11 | 0.937 | 0.622 | 3.33 | 0.934 | 0.787 | 0.844 | 1.34 | 0.965 | 3.4 | 0.764 | 0.83 | 2.48 | 0.776 | 1.78 | 1.03 |
| HNLDYYKQTTN [FGFR3_Y648_K650Q] | 0.656 | 0.883 | 0.839 | 0.979 | 0.786 | 0.536 | 3.5 | 2.61 | 0.585 | 1.01 | 0.714 | 0.704 | 1.27 | 0.658 | 0.793 | 0.476 |
| HNLPIYEGYAL [ACTA1_Y168_V165L] | 0.835 | 0.714 | 2.85 | 1.24 | 17 | 22.7 | 0.547 | 0.64 | 19.3 | 1.16 | 11.6 | 9.09 | 0.566 | 6.51 | 2.79 | 6.97 |
| IAINKYGVSLI [MYO7A_Y2136] | 0.946 | 0.703 | 0.657 | 0.837 | 0.608 | 0.613 | 0.619 | 0.594 | 0.527 | 1.12 | 0.432 | 0.497 | 1.01 | 0.426 | 0.744 | 0.441 |

Now from value to sequence, other results behind:

| SH2 binding enrichment [14] | SH2 binding enrichment [15] | SH2 binding enrichment [16] | Sequence | phosphorylation enrichment [1] | phosphorylation enrichment [2] | phosphorylation enrichment [3] | phosphorylation enrichment [4] | phosphorylation enrichment [5] | phosphorylation enrichment [6] | phosphorylation enrichment [7] | phosphorylation enrichment [8] | phosphorylation enrichment [9] | phosphorylation enrichment [10] | phosphorylation enrichment [11] | phosphorylation enrichment [12] | phosphorylation enrichment [13] |
| --- | --- | --- | --- | --- | --- | --- | --- | --- | --- | --- | --- | --- | --- | --- | --- | --- |
| 1.07 | 0.832 | 0.802 | GRTNIYKNKKD [SLC26A3_Y520] | 0.467 | 0.415 | 0.393 | 0.369 | 0.475 | 0.349 | 0.648 | 0.308 | 0.447 | 0.66 | 0.43 | 0.721 | 0.434 |
| 1.12 | 1.19 | 0.833 | GSSKIYFLHAD [TLR5_Y108_P112A] | 0.862 | 0.492 | 0.557 | 0.8 | 0.731 | 0.423 | 0.984 | 0.951 | 0.712 | 0.954 | 0.797 | 0.579 | 0.893 |
| 0.969 | 0.54 | 0.472 | GVKLTYGDAQN [SLC28A1_Y404] | 0.726 | 0.379 | 0.45 | 0.53 | 0.473 | 0.397 | 0.872 | 0.479 | 0.369 | 1.63 | 0.397 | 0.813 | 0.499 |
| 1.97 | 1.41 | 1.98 | HAVFVCDICHV [TWNK_Y508_Y508C_YF] | 0.933 | 0.627 | 0.631 | 0.506 | 0.775 | 0.696 | 0.836 | 0.455 | 0.603 | 0.948 | 0.689 | 0.641 | 0.807 |
| 0.734 | 0.574 | 0.678 | HCFNSYTFPRL [PAK7_Y316_S312C_YF] | 1.94 | 0.752 | 0.743 | 0.713 | 0.978 | 0.804 | 1.72 | 0.707 | 0.564 | 1.31 | 0.591 | 0.795 | 0.469 |
| 0.766 | 0.962 | 0.433 | HFMKLYEEKTG [PARP1_Y618] | 0.862 | 0.482 | 0.46 | 0.464 | 1.08 | 0.277 | 0.663 | 0.282 | 0.519 | 0.592 | 0.438 | 0.355 | 0.425 |
| 0.772 | 0.693 | 5.15 | HIKHNYECLVY [XRCC5_Y416] | 1.05 | 2.87 | 2.44 | 0.924 | 0.839 | 0.514 | 1.05 | 0.868 | 0.638 | 0.935 | 0.548 | 0.882 | 1.78 |
| 0.956 | 0.605 | 1.02 | HLVSEYQQYQD [TUBB3_Y422_D417H] | 1.78 | 1.07 | 1.11 | 0.868 | 1.05 | 0.72 | 1.61 | 0.652 | 1.21 | 1.29 | 0.482 | 0.98 | 0.939 |
| 0.851 | 0.846 | 0.575 | HRAVEYLLTGI [RAD23A_Y197] | 0.991 | 0.846 | 0.636 | 0.8 | 0.817 | 0.488 | 1.02 | 0.739 | 0.7 | 0.736 | 0.549 | 0.709 | 0.458 |
| 0.842 | 0.938 | 10.9 | HRDSSYYWEIE [RAF1_Y340_Q335H] | 1.69 | 3.07 | 1.72 | 6.05 | 4.34 | 0.612 | 1.67 | 1.97 | 1.47 | 1.03 | 4.59 | 0.818 | 1.92 |
| 1.01 | 1.1 | 0.567 | HSDYQYGQRSQ [PKP2_Y168_S169G] | 0.618 | 0.449 | 0.335 | 0.357 | 0.457 | 0.478 | 0.44 | 0.578 | 0.574 | 0.446 | 0.439 | 0.484 | 0.402 |
| 0.931 | 0.647 | 0.541 | HVEAVYIDIAD [PITPNA_Y140] | 1.39 | 2.52 | 1.27 | 5.13 | 2.96 | 2.23 | 1.18 | 1.14 | 0.837 | 0.922 | 0.708 | 0.831 | 1.87 |
| 1.03 | 0.938 | 5.15 | HVKHNYECLVY [XRCC5_Y416_I412V] | 1.06 | 2.87 | 2.04 | 0.75 | 1.12 | 0.573 | 1.2 | 0.922 | 0.842 | 1.12 | 0.519 | 1.01 | 2.04 |
